T1: soluble Homo sapiens CD131 comprising a C-terminal 6xHis tag (human, UniProt P32927 17-438)
T1 construct: truncated after Ser438, C-terminal 6xHis; also called shCD131; shβc
T1 sequence: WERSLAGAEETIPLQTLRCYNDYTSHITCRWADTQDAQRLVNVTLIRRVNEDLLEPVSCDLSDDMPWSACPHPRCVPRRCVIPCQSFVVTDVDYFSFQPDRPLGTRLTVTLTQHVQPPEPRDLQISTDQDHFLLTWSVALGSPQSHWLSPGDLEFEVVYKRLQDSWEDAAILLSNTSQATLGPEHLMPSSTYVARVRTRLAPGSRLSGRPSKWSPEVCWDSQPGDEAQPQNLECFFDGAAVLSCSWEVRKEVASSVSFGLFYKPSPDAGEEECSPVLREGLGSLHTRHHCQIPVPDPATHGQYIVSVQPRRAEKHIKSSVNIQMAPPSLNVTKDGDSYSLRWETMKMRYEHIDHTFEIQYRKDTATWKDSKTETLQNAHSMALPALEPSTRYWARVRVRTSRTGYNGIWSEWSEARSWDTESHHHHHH


molecular target: T1, soluble Homo sapiens CD131 comprising a …; test: SPR, Fab over captured shCD131
Experimental: (§1) Binding kinetics were measured using SPR with a BIAcore™ A-100 instrument (GE Healthcare Life Sciences). An anti-C-terminal Hexa-His antibody (3H3) was immobilized on spots 1, 2, 4 and 5 of each flow cell of a CM-5 sensor chip (GE Healthcare Life Sciences) using amine-coupling chemistry (116). […] As shβc is a dimer, kinetics assays were performed with shβc captured on the sensor surface, and purified Fab injected as the analyte. Avidity effects were avoided by the use of Fab rather than whole IgG.
(§2) shCD131 was captured on spots 1 and 5 of each flow cell for 2 minutes at a concentration of 0.4 μg/ml. […] For some analysis purified Fab was injected over each flow cell for 3 minutes and dissociation was monitored for a further 10 minutes. Regeneration of the surface was performed after each cycle with a 40 second injection of 25 mM glycine, pH 2.0. The analysis was performed with Fabs at several concentrations between 100 and 0.31 nM, with each concentration analyzed twice and in random order. The analysis was performed at a flow rate of 30 μl/min in HBS-EP buffer (10 mM Hepes, 150 mM NaCl, 3 mM EDTA, 0.005% Tween 20, pH 7.4) at 37° C. Responses from spots 2 and 4 of each flow cell, (in which shβc was not captured, but otherwise treated identically), were subtracted from those of spots 1 and 5 respectively to produce reference subtracted data. Reference subtracted responses from a blank injection comprising buffer alone were subtracted from the resultant sensorgrams to produce double referenced data suitable for kinetic analysis. Double-referenced sensorgrams were fitted using non-linear regression to a model describing 1:1 kinetics, including a term for mass transport limitation. The Rₘₐₓ value was fitted locally to account for slight deviations in the level of sCD131 captured, with association rate (kₐ), dissociation rate (kd) and equilibrium dissociation constant (KD) fitted globally.

| Binder | Kd | koff | kon | fold improvement in binding affinity over parental 9A2 | fold decrease in dissociation rate (kd) compared to parental 9A2 | fold decrease in the dissociation rate (kd) compared to parental 9A2 | fold higher affinity compared to parental 9A2 |
| --- | --- | --- | --- | --- | --- | --- | --- |
| 9A2-VR19 Fab (Fab, V domains shown, recombinant Fab) VH: EVQLLESGGGLVQPGGSLRLSCAASGFTFSHYHMLWVRQAPGKGLEWVSSIRSSGGFTYYADSVKGRFTISRDNSKNTLYLQMNSLRAEDTAVYYCARFYDSFFDIWGQGTMVTVSS VL: DIQMTQSPSSVSASVGDRVTITCRASQGISSWLAWYQQKPGKAPKLLIYAASSLQSGVPSRFSGSGSGTDFTLTISSLQPEDFATYYCGIPILGPITFGQGTRLEIKR | 30 nM | – | – | – | – | – | – |
| 9A2-VR26 Fab (Fab, V domains shown, recombinant Fab) VH: EVQLLESGGGLVQPGGSLRLSCAASGFTFIHYRVHWVRQAPGKGLEWVSSIRSSGGFTYYADSVKGRFTISRDNSKNTLYLQMNSLRAEDTAVYYCARFYDSFFDIWGQGTMVTVSS VL: DIQMTQSPSSVSASVGDRVTITCRASQGISSWLAWYQQKPGKAPKLLIYAASSLQSGVPSRFSGSGSGTDFTLTISSLQPEDFATYYCQQANSFPITFGQGTRLEIKR | 0.23 nM | 0.00055 s⁻¹ | 2.4e+06 M⁻¹ s⁻¹ | – | – | – | – |
| 9A2-VR35 Fab (Fab, V domains shown, recombinant Fab) VH: EVQLLESGGGLVQPGGSLRLSCAASGFTFSHYHMLWVRQAPGKGLEWVSSINGFGRNTYYADSVKGRFTISRDNSKNTLYLQMNSLRAEDTAVYYCARFYDSFFDIWGQGTMVTVSS VL: DIQMTQSPSSVSASVGDRVTITCRASQGISSWLAWYQQKPGKAPKLLIYAASSLQSGVPSRFSGSGSGTDFTLTISSLQPEDFATYYCQQANSFPITFGQGTRLEIKR | 0.34 nM | – | – | – | – | – | – |
| 9A2-VR21 Fab (Fab, V domains shown, recombinant Fab) VH: EVQLLESGGGLVQPGGSLRLSCAASGFTFMHYRVHWVRQAPGKGLEWVSSIRSSGGFTYYADSVKGRFTISRDNSKNTLYLQMNSLRAEDTAVYYCARFYDSFFDIWGQGTMVTVSS VL: DIQMTQSPSSVSASVGDRVTITCRASQGISSWLAWYQQKPGKAPKLLIYAASSLQSGVPSRFSGSGSGTDFTLTISSLQPEDFATYYCQQANSFPITFGQGTRLEIKR | 0.39 nM | – | – | – | – | – | – |
| 9A2-VR32 Fab (Fab, V domains shown, recombinant Fab) VH: EVQLLESGGGLVQPGGSLRLSCAASGFTFSHYHMLWVRQAPGKGLEWVSSISGSVRSTYYADSVKGRFTISRDNSKNTLYLQMNSLRAEDTAVYYCARFYDSFFDIWGQGTMVTVSS VL: DIQMTQSPSSVSASVGDRVTITCRASQGISSWLAWYQQKPGKAPKLLIYAASSLQSGVPSRFSGSGSGTDFTLTISSLQPEDFATYYCQQANSFPITFGQGTRLEIKR | 0.34 nM | – | – | – | – | – | – |
| 9A2-VR27 Fab (Fab, V domains shown, recombinant Fab) VH: EVQLLESGGGLVQPGGSLRLSCAASGFTFTHYRVHWVRQAPGKGLEWVSSIRSSGGFTYYADSVKGRFTISRDNSKNTLYLQMNSLRAEDTAVYYCARFYDSFFDIWGQGTMVTVSS VL: DIQMTQSPSSVSASVGDRVTITCRASQGISSWLAWYQQKPGKAPKLLIYAASSLQSGVPSRFSGSGSGTDFTLTISSLQPEDFATYYCQQANSFPITFGQGTRLEIKR | 0.47 nM | 0.0011 s⁻¹ | 2.3e+06 M⁻¹ s⁻¹ | – | – | – | – |
| 9A2-VR20 Fab (Fab, V domains shown, recombinant Fab) VH: EVQLLESGGGLVQPGGSLRLSCAASGFTFNHYRVHWVRQAPGKGLEWVSSIRSSGGFTYYADSVKGRFTISRDNSKNTLYLQMNSLRAEDTAVYYCARFYDSFFDIWGQGTMVTVSS VL: DIQMTQSPSSVSASVGDRVTITCRASQGISSWLAWYQQKPGKAPKLLIYAASSLQSGVPSRFSGSGSGTDFTLTISSLQPEDFATYYCQQANSFPITFGQGTRLEIKR | 0.58 nM | – | – | – | – | – | – |
| 9A2-VR24 Fab (Fab, V domains shown, recombinant Fab) VH: EVQLLESGGGLVQPGGSLRLSCAASGFTFPWYRVHWVRQAPGKGLEWVSSIRSSGGFTYYADSVKGRFTISRDNSKNTLYLQMNSLRAEDTAVYYCARFYDSFFDIWGQGTMVTVSS VL: DIQMTQSPSSVSASVGDRVTITCRASQGISSWLAWYQQKPGKAPKLLIYAASSLQSGVPSRFSGSGSGTDFTLTISSLQPEDFATYYCQQANSFPITFGQGTRLEIKR | 0.46 nM | 0.0011 s⁻¹ | 2.3e+06 M⁻¹ s⁻¹ | – | 87 fold | 87 fold | 106 fold |

Further lines, results first:

| Kd | koff | kon | fold improvement in binding affinity over parental 9A2 | fold decrease in dissociation rate (kd) compared to parental 9A2 | fold decrease in the dissociation rate (kd) compared to parental 9A2 | fold higher affinity compared to parental 9A2 | Binder |
| --- | --- | --- | --- | --- | --- | --- | --- |
| 0.3 nM | – | – | – | – | – | – | 9A2-VR36 Fab (Fab, V domains shown, recombinant Fab) VH: EVQLLESGGGLVQPGGSLRLSCAASGFTFSHYHMLWVRQAPGKGLEWVSSIGGDKRQTYYADSVKGRFTISRDNSKNTLYLQMNSLRAEDTAVYYCARFYDSFFDIWGQGTMVTVSS VL: DIQMTQSPSSVSASVGDRVTITCRASQGISSWLAWYQQKPGKAPKLLIYAASSLQSGVPSRFSGSGSGTDFTLTISSLQPEDFATYYCQQANSFPITFGQGTRLEIKR |
| 0.46 nM | 0.00076 s⁻¹ | 1.7e+06 M⁻¹ s⁻¹ | – | – | – | – | 9A2-VR41 Fab (Fab, V domains shown, recombinant Fab) VH: EVQLLESGGGLVQPGGSLRLSCAASGFTFSHYHMLWVRQAPGKGLEWVSSINGKGWTTYYADSVKGRFTISRDNSKNTLYLQMNSLRAEDTAVYYCARFYDSFFDIWGQGTMVTVSS VL: DIQMTQSPSSVSASVGDRVTITCRASQGISSWLAWYQQKPGKAPKLLIYAASSLQSGVPSRFSGSGSGTDFTLTISSLQPEDFATYYCQQANSFPITFGQGTRLEIKR |
| 0.27 nM | 0.00059 s⁻¹ | 3e+06 M⁻¹ s⁻¹ | ~180 fold | – | – | – | 9A2-VR39 Fab (Fab, V domains shown, recombinant Fab) VH: EVQLLESGGGLVQPGGSLRLSCAASGFTFSHYHMLWVRQAPGKGLEWVSSINGRGRVTYYADSVKGRFTISRDNSKNTLYLQMNSLRAEDTAVYYCARFYDSFFDIWGQGTMVTVSS VL: DIQMTQSPSSVSASVGDRVTITCRASQGISSWLAWYQQKPGKAPKLLIYAASSLQSGVPSRFSGSGSGTDFTLTISSLQPEDFATYYCQQANSFPITFGQGTRLEIKR |
| 5 nM | – | – | – | – | – | – | 9A2-VR44 Fab (Fab, V domains shown, recombinant Fab) VH: EVQLLESGGGLVQPGGSLRLSCAASGFTFSHYHMLWVRQAPGKGLEWVSSIRSSGGFTYYADSVKGRFTISRDNSKNTLYLQMNSLRAEDTAVYYCARFYDSHFDIWGQGTMVTVSS VL: DIQMTQSPSSVSASVGDRVTITCRASQGISSWLAWYQQKPGKAPKLLIYAASSLQSGVPSRFSGSGSGTDFTLTISSLQPEDFATYYCQQANSFPITFGQGTRLEIKR |
| 0.52 nM | 0.00066 s⁻¹ | 1.3e+06 M⁻¹ s⁻¹ | – | – | – | – | 9A2-VR40 Fab (Fab, V domains shown, recombinant Fab) VH: EVQLLESGGGLVQPGGSLRLSCAASGFTFSHYHMLWVRQAPGKGLEWVSSINGYGIQTYYADSVKGRFTISRDNSKNTLYLQMNSLRAEDTAVYYCARFYDSFFDIWGQGTMVTVSS VL: DIQMTQSPSSVSASVGDRVTITCRASQGISSWLAWYQQKPGKAPKLLIYAASSLQSGVPSRFSGSGSGTDFTLTISSLQPEDFATYYCQQANSFPITFGQGTRLEIKR |
| 0.38 nM | – | – | – | – | – | – | 9A2-VR42 Fab (Fab, V domains shown, recombinant Fab) VH: EVQLLESGGGLVQPGGSLRLSCAASGFTFSHYHMLWVRQAPGKGLEWVSSIGGDIRQTYYADSVKGRFTISRDNSKNTLYLQMNSLRAEDTAVYYCARFYDSFFDIWGQGTMVTVSS VL: DIQMTQSPSSVSASVGDRVTITCRASQGISSWLAWYQQKPGKAPKLLIYAASSLQSGVPSRFSGSGSGTDFTLTISSLQPEDFATYYCQQANSFPITFGQGTRLEIKR |

molecular target: T1, soluble Homo sapiens CD131 comprising a …; test: SPR, Fab over captured shCD131; remark: another data set of the same source
Experimental: as §1, §2

| Kd | koff | kon | Binder |
| --- | --- | --- | --- |
| 0.27 nM | 0.00059 s⁻¹ | 3e+06 M⁻¹ s⁻¹ | 9A2-VR39 Fab (Fab, V domains shown, recombinant Fab) VH: EVQLLESGGGLVQPGGSLRLSCAASGFTFSHYHMLWVRQAPGKGLEWVSSINGRGRVTYYADSVKGRFTISRDNSKNTLYLQMNSLRAEDTAVYYCARFYDSFFDIWGQGTMVTVSS VL: DIQMTQSPSSVSASVGDRVTITCRASQGISSWLAWYQQKPGKAPKLLIYAASSLQSGVPSRFSGSGSGTDFTLTISSLQPEDFATYYCQQANSFPITFGQGTRLEIKR |
| 0.46 nM | 0.0011 s⁻¹ | 2.3e+06 M⁻¹ s⁻¹ | 9A2-VR24 Fab (Fab, V domains shown, recombinant Fab) VH: EVQLLESGGGLVQPGGSLRLSCAASGFTFPWYRVHWVRQAPGKGLEWVSSIRSSGGFTYYADSVKGRFTISRDNSKNTLYLQMNSLRAEDTAVYYCARFYDSFFDIWGQGTMVTVSS VL: DIQMTQSPSSVSASVGDRVTITCRASQGISSWLAWYQQKPGKAPKLLIYAASSLQSGVPSRFSGSGSGTDFTLTISSLQPEDFATYYCQQANSFPITFGQGTRLEIKR |
